Where “and” joins values, the source holds several entries; their conditions need not be identical. Equal entries are not always repeated.
Columns and labels:
[1] = target: Tilapia Lake virus nucleoprotein (TiLV-NP) (Tilapia Lake virus); assay: cryo-EM structure
[2] = target: Tilapia Lake virus nucleoprotein (TiLV-NP) (Tilapia Lake virus); assay: mass photometry; apo TiLV-NP at 25 nM; 50 mM HEPES pH 8, 150 mM NaCl, 2 mM TCEP
[3] = target: Tilapia Lake virus nucleoprotein (TiLV-NP) (Tilapia Lake virus); assay: mass photometry; RNA-bound TiLV-NP (40-mer vRNA loop) at 25 nM TiLV-NP; 50 mM HEPES pH 8, 150 mM NaCl, 2 mM TCEP
[4] = target: Tilapia Lake virus nucleoprotein (TiLV-NP) (Tilapia Lake virus); assay: as above; remark: listed apart in the source
[5] = target: Tilapia Lake virus nucleoprotein (TiLV-NP) (Tilapia Lake virus); assay: SEC-MALS; apo TiLV-NP injected at 5 and 3 mg/ml; Superdex 200 Increase 10/300 GL; 50 mM HEPES pH 8, 150 mM NaCl, 2 mM TCEP

**Q.** For “Tilapia Lake virus nucleoprotein (TiLV-NP) (natural protein)”, which stoichiometry N [1] is on record?
**A.** 4 and 5 and 6

**Q.** And the stoichiometry N [2]?
**A.** 3 and 4 and 5

**Q.** And the stoichiometry N [3]?
**A.** 5 and 6

**Q.** What about the stoichiometry N [4] of the same substance?
**A.** 3 and 4

**Q.** What about the stoichiometry N [5] of the same substance?
**A.** 3 and 4

Reference: article PMC11850232
